We go through six molecules from patent publication US20140087995A1 (published 2014).

Numbered stars: 1 amine (or outer) side, 2 acyl side, 3 side chain; on linkers, the order of the positions; unused ones are H or OH. Bridge positions count the residues as written; N and C are the ends. Side chains are listed from the residue outwards. Ends that are not written are not given here. * marks the point of attachment. C20 diacid = O=C(O)CCCCCCCCCCCCCCCCCCC(=O)*; γGlu = O=C(O)[C@H](CCC(=O)[*:2])N[*:1]; AEEA = NCCOCCOCC(=O)O

T1: human amylin receptor (human, UniProt P30988 25-474; O60896 24-148, limits assumed)
T1 construct: whole, on cells; Calcitonin receptor plus RAMP-3 gives the amylin 3(a) receptor; membranes of Amylin 3(a)/CRE-luc cells were used; also called hAmylin-R; hAmylinR
T1 sequence (looked up) 1: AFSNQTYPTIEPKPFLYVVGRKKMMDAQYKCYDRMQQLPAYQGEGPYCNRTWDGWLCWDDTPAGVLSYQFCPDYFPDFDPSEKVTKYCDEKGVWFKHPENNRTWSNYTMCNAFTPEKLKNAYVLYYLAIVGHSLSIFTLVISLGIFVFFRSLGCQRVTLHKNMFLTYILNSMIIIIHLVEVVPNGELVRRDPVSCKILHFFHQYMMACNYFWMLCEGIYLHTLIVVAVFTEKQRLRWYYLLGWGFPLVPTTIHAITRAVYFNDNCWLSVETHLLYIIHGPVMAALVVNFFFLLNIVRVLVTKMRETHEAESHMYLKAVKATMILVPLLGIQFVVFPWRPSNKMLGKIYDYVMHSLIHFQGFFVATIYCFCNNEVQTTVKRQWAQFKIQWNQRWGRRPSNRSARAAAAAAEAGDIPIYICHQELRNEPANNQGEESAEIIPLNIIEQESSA
T1 sequence (looked up) 2: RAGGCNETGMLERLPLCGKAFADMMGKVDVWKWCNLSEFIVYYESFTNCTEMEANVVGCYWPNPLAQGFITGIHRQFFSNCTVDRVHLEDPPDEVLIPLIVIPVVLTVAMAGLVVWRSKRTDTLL

B1: N^ε1-[2-[2-[2-[[(4S)-4-carboxy-4-(19-carboxynonadecanoylamino)butanoyl]amino]ethoxy]ethoxy]acetyl]-[Arg17,Pro21,Pro27]-h-amylin (peptide)
peptide: K([AEEA-γGlu-C20 diacid])CNTATCATQRLANFLRHSSPNFGAIPSSTNVGSNTY-NH2
modifications: disulfide 2-7; N-terminus assumed
SMILES: CC[C@H](C)[C@H](NC(=O)[C@H](C)NC(=O)CNC(=O)[C@H](Cc1ccccc1)NC(=O)[C@H](CC(N)=O)NC(=O)[C@@H]1CCCN1C(=O)[C@H](CO)NC(=O)[C@H](CO)NC(=O)[C@H](Cc1c[nH]cn1)NC(=O)[C@H](CCCNC(=N)N)NC(=O)[C@H](CC(C)C)NC(=O)[C@H](Cc1ccccc1)NC(=O)[C@H](CC(N)=O)NC(=O)[C@H](C)NC(=O)[C@H](CC(C)C)NC(=O)[C@H](CCCNC(=N)N)NC(=O)[C@H](CCC(N)=O)NC(=O)[C@@H](NC(=O)[C@H](C)NC(=O)[C@@H]1CSSC[C@H](NC(=O)[C@@H](N)CCCCNC(=O)COCCOCCNC(=O)CC[C@H](NC(=O)CCCCCCCCCCCCCCCCCCC(=O)O)C(=O)O)C(=O)N[C@@H](CC(N)=O)C(=O)N[C@@H]([C@@H](C)O)C(=O)N[C@@H](C)C(=O)N[C@@H]([C@@H](C)O)C(=O)N1)[C@@H](C)O)C(=O)N1CCC[C@H]1C(=O)N[C@@H](CO)C(=O)N[C@@H](CO)C(=O)N[C@H](C(=O)N[C@@H](CC(N)=O)C(=O)N[C@H](C(=O)NCC(=O)N[C@@H](CO)C(=O)N[C@@H](CC(N)=O)C(=O)N[C@H](C(=O)N[C@@H](Cc1ccc(O)cc1)C(N)=O)[C@@H](C)O)C(C)C)[C@@H](C)O
notes: also called 17R, 21P, 27P
B2: N^ε1-[(4S)-4-carboxy-4-[[(4S)-4-carboxy-4-(19-carboxynonadecanoylamino)butanoyl]amino]butanoyl]-[His14,Arg17,Pro21,Pro27]-h-amylin (peptide)
peptide: K([γGlu-γGlu-C20 diacid])CNTATCATQRLAHFLRHSSPNFGAIPSSTNVGSNTY-NH2
modifications: disulfide 2-7; N-terminus assumed
SMILES: CC[C@H](C)[C@H](NC(=O)[C@H](C)NC(=O)CNC(=O)[C@H](Cc1ccccc1)NC(=O)[C@H](CC(N)=O)NC(=O)[C@@H]1CCCN1C(=O)[C@H](CO)NC(=O)[C@H](CO)NC(=O)[C@H](Cc1c[nH]cn1)NC(=O)[C@H](CCCNC(=N)N)NC(=O)[C@H](CC(C)C)NC(=O)[C@H](Cc1ccccc1)NC(=O)[C@H](Cc1c[nH]cn1)NC(=O)[C@H](C)NC(=O)[C@H](CC(C)C)NC(=O)[C@H](CCCNC(=N)N)NC(=O)[C@H](CCC(N)=O)NC(=O)[C@@H](NC(=O)[C@H](C)NC(=O)[C@@H]1CSSC[C@H](NC(=O)[C@@H](N)CCCCNC(=O)CC[C@H](NC(=O)CC[C@H](NC(=O)CCCCCCCCCCCCCCCCCCC(=O)O)C(=O)O)C(=O)O)C(=O)N[C@@H](CC(N)=O)C(=O)N[C@@H]([C@@H](C)O)C(=O)N[C@@H](C)C(=O)N[C@@H]([C@@H](C)O)C(=O)N1)[C@@H](C)O)C(=O)N1CCC[C@H]1C(=O)N[C@@H](CO)C(=O)N[C@@H](CO)C(=O)N[C@H](C(=O)N[C@@H](CC(N)=O)C(=O)N[C@H](C(=O)NCC(=O)N[C@@H](CO)C(=O)N[C@@H](CC(N)=O)C(=O)N[C@H](C(=O)N[C@@H](Cc1ccc(O)cc1)C(N)=O)[C@@H](C)O)C(C)C)[C@@H](C)O
notes: also called 14H, 17R, 21P, 27P
B3: N^ε1N^ε1-[(4S)-4-carboxy-4-(19-carboxynonadecanoylamino)butanoyl]-[His14,Arg17,Pro21,Pro27,Pro34]-h-amylin (peptide)
peptide: K([γGlu-C20 diacid])CNTATCATQRLAHFLRHSSPNFGAIPSSTNVGPNTY-NH2
modifications: disulfide 2-7; N-terminus assumed
SMILES: CC[C@H](C)[C@H](NC(=O)[C@H](C)NC(=O)CNC(=O)[C@H](Cc1ccccc1)NC(=O)[C@H](CC(N)=O)NC(=O)[C@@H]1CCCN1C(=O)[C@H](CO)NC(=O)[C@H](CO)NC(=O)[C@H](Cc1c[nH]cn1)NC(=O)[C@H](CCCNC(=N)N)NC(=O)[C@H](CC(C)C)NC(=O)[C@H](Cc1ccccc1)NC(=O)[C@H](Cc1c[nH]cn1)NC(=O)[C@H](C)NC(=O)[C@H](CC(C)C)NC(=O)[C@H](CCCNC(=N)N)NC(=O)[C@H](CCC(N)=O)NC(=O)[C@@H](NC(=O)[C@H](C)NC(=O)[C@@H]1CSSC[C@H](NC(=O)[C@@H](N)CCCCNC(=O)CC[C@H](NC(=O)CCCCCCCCCCCCCCCCCCC(=O)O)C(=O)O)C(=O)N[C@@H](CC(N)=O)C(=O)N[C@@H]([C@@H](C)O)C(=O)N[C@@H](C)C(=O)N[C@@H]([C@@H](C)O)C(=O)N1)[C@@H](C)O)C(=O)N1CCC[C@H]1C(=O)N[C@@H](CO)C(=O)N[C@@H](CO)C(=O)N[C@H](C(=O)N[C@@H](CC(N)=O)C(=O)N[C@H](C(=O)NCC(=O)N1CCC[C@H]1C(=O)N[C@@H](CC(N)=O)C(=O)N[C@H](C(=O)N[C@@H](Cc1ccc(O)cc1)C(N)=O)[C@@H](C)O)C(C)C)[C@@H](C)O
notes: also called 14H, 17R, 21P, 27P, 34P
B4: N^ε1-[(4S)--4-carboxy-4-(19-carboxynonadecanoylamino)butanoyl]-[Glu14,Arg17,Pro21,Pro27,Pro37]-h-amylin (peptide)
peptide: K([γGlu-C20 diacid])CNTATCATQRLAEFLRHSSPNFGAIPSSTNVGSNTP-NH2
modifications: disulfide 2-7; N-terminus assumed
SMILES: CC[C@H](C)[C@H](NC(=O)[C@H](C)NC(=O)CNC(=O)[C@H](Cc1ccccc1)NC(=O)[C@H](CC(N)=O)NC(=O)[C@@H]1CCCN1C(=O)[C@H](CO)NC(=O)[C@H](CO)NC(=O)[C@H](Cc1c[nH]cn1)NC(=O)[C@H](CCCNC(=N)N)NC(=O)[C@H](CC(C)C)NC(=O)[C@H](Cc1ccccc1)NC(=O)[C@H](CCC(=O)O)NC(=O)[C@H](C)NC(=O)[C@H](CC(C)C)NC(=O)[C@H](CCCNC(=N)N)NC(=O)[C@H](CCC(N)=O)NC(=O)[C@@H](NC(=O)[C@H](C)NC(=O)[C@@H]1CSSC[C@H](NC(=O)[C@@H](N)CCCCNC(=O)CC[C@H](NC(=O)CCCCCCCCCCCCCCCCCCC(=O)O)C(=O)O)C(=O)N[C@@H](CC(N)=O)C(=O)N[C@@H]([C@@H](C)O)C(=O)N[C@@H](C)C(=O)N[C@@H]([C@@H](C)O)C(=O)N1)[C@@H](C)O)C(=O)N1CCC[C@H]1C(=O)N[C@@H](CO)C(=O)N[C@@H](CO)C(=O)N[C@H](C(=O)N[C@@H](CC(N)=O)C(=O)N[C@H](C(=O)NCC(=O)N[C@@H](CO)C(=O)N[C@@H](CC(N)=O)C(=O)N[C@H](C(=O)N1CCC[C@H]1C(N)=O)[C@@H](C)O)C(C)C)[C@@H](C)O
notes: also called 14E, 17R, 21P, 27P, 37P
B5: N^ε1-[(4S)-4-carboxy-4-[[(4S)-4-carboxy-4-(19-carboxynonadecanoylamino)butanoyl]amino]butanoyl]-[Ser14,Arg17,Pro21,Pro27,Pro34,Glu35]-h-amylin (peptide)
peptide: K([γGlu-γGlu-C20 diacid])CNTATCATQRLASFLRHSSPNFGAIPSSTNVGPETY-NH2
modifications: disulfide 2-7; N-terminus assumed
SMILES: CC[C@H](C)[C@H](NC(=O)[C@H](C)NC(=O)CNC(=O)[C@H](Cc1ccccc1)NC(=O)[C@H](CC(N)=O)NC(=O)[C@@H]1CCCN1C(=O)[C@H](CO)NC(=O)[C@H](CO)NC(=O)[C@H](Cc1c[nH]cn1)NC(=O)[C@H](CCCNC(=N)N)NC(=O)[C@H](CC(C)C)NC(=O)[C@H](Cc1ccccc1)NC(=O)[C@H](CO)NC(=O)[C@H](C)NC(=O)[C@H](CC(C)C)NC(=O)[C@H](CCCNC(=N)N)NC(=O)[C@H](CCC(N)=O)NC(=O)[C@@H](NC(=O)[C@H](C)NC(=O)[C@@H]1CSSC[C@H](NC(=O)[C@@H](N)CCCCNC(=O)CC[C@H](NC(=O)CC[C@H](NC(=O)CCCCCCCCCCCCCCCCCCC(=O)O)C(=O)O)C(=O)O)C(=O)N[C@@H](CC(N)=O)C(=O)N[C@@H]([C@@H](C)O)C(=O)N[C@@H](C)C(=O)N[C@@H]([C@@H](C)O)C(=O)N1)[C@@H](C)O)C(=O)N1CCC[C@H]1C(=O)N[C@@H](CO)C(=O)N[C@@H](CO)C(=O)N[C@H](C(=O)N[C@@H](CC(N)=O)C(=O)N[C@H](C(=O)NCC(=O)N1CCC[C@H]1C(=O)N[C@@H](CCC(=O)O)C(=O)N[C@H](C(=O)N[C@@H](Cc1ccc(O)cc1)C(N)=O)[C@@H](C)O)C(C)C)[C@@H](C)O
notes: also called 14S, 17R, 21P, 27P, 34P, 35E
B6: N{Alpha-1}-[(4S)-4-carboxy-4-(19-carboxynonadecanoylamino)butanoyl]-[Glu14,Arg17,Pro21,Pro27,Lys34]-h-amylin (peptide)
peptide: {C20 diacid-γGlu}-KCNTATCATQRLAEFLRHSSPNFGAIPSSTNVGKNTY-NH2
modifications: disulfide 2-7
SMILES: CC[C@H](C)[C@H](NC(=O)[C@H](C)NC(=O)CNC(=O)[C@H](Cc1ccccc1)NC(=O)[C@H](CC(N)=O)NC(=O)[C@@H]1CCCN1C(=O)[C@H](CO)NC(=O)[C@H](CO)NC(=O)[C@H](Cc1c[nH]cn1)NC(=O)[C@H](CCCNC(=N)N)NC(=O)[C@H](CC(C)C)NC(=O)[C@H](Cc1ccccc1)NC(=O)[C@H](CCC(=O)O)NC(=O)[C@H](C)NC(=O)[C@H](CC(C)C)NC(=O)[C@H](CCCNC(=N)N)NC(=O)[C@H](CCC(N)=O)NC(=O)[C@@H](NC(=O)[C@H](C)NC(=O)[C@@H]1CSSC[C@H](NC(=O)[C@H](CCCCN)NC(=O)CC[C@H](NC(=O)CCCCCCCCCCCCCCCCCCC(=O)O)C(=O)O)C(=O)N[C@@H](CC(N)=O)C(=O)N[C@@H]([C@@H](C)O)C(=O)N[C@@H](C)C(=O)N[C@@H]([C@@H](C)O)C(=O)N1)[C@@H](C)O)C(=O)N1CCC[C@H]1C(=O)N[C@@H](CO)C(=O)N[C@@H](CO)C(=O)N[C@H](C(=O)N[C@@H](CC(N)=O)C(=O)N[C@H](C(=O)NCC(=O)N[C@@H](CCCCN)C(=O)N[C@@H](CC(N)=O)C(=O)N[C@H](C(=O)N[C@@H](Cc1ccc(O)cc1)C(N)=O)[C@@H](C)O)C(C)C)[C@@H](C)O
notes: also called 14E, 17R, 21P, 27P, 34K

This test concerns the target T1, human amylin receptor. The experiment in a line: SPA competition binding, displacement of 125I-rat amylin from membranes with human amylin 3(a) receptor (Assay V). The method in brief: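 Cell membranes were prepared by homogenisation in Na-HEPES/EDTA buffer, pH 7.4, and stored at −80° C. They were then coupled to SPA beads at 35 ng/μL final and exposed to compounds in assay buffer containing CaCl2, MgCl₂, OA and Tween20. After 120 min at 25° C, plates were counted and IC₅₀ derived.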
On the technique in general: In a radioligand displacement assay an active substance lowers the binding of a labelled ligand.
The term IC50 denotes the midpoint of a concentration-inhibition curve. Read a high IC50 as lower potency. B1: the IC50 was 427 pM.
As to B2, the IC50 was determined as 179 pM.
B3: the IC50 is 90 pM.
In turn, B4 returned an IC50 of 142 pM.
The result for B5 reads 76 pM.
To B6 belongs 403 pM.
